The target in test [1] is SARS-CoV-1 Spike protein, 2 P (SARS-CoV-1, isolate , UniProt P59594, stabilised). Put plainly: ELISA. As to conditions: both partners purified.
Test [2] addresses MERS Spike protein, 2 P (MERS-CoV, isolate  (entry: …, UniProt K9N5Q8, stabilised)). Put plainly: ELISA. As to conditions: both partners purified. (ELISA stands for enzyme-linked immunosorbent assay.)

B1: S2P6 mAb (antibody, V domains shown)
VH: EVQLVQSGAEVKKPGASVKVSCKASGYTFTSQYMHWVRQAPGQGLEWIGIINPSGVHTSYAQKFQGRVTLTRDTSTSTLYMELSSLRSEDTAVYYCARGSPKGAFDYWGQGTLVTVSS
VL: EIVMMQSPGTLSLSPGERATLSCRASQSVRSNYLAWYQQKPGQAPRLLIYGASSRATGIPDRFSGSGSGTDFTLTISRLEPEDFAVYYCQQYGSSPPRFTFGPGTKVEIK
notes: IgG; IGHV1-46/IGKV3-20; source: Expi293F, transfected, purified (Protein A)
As for B1, the binding result in test [1] and in test [2] was “binds” throughout.

B2: CC40.8 mAb (antibody, V domains shown)
VH: EVQLLESGGGLVQPGGSLRLSCAASGFTFSSYVMTWARQAPGKGLEWVSAISGTGYTYYADSVKGRFTVSRDNSKNTLFLQMSSLRAEDTAVYYCAITMAPVVWGQGTTVTVSS
VL: SYELTQPPSVSVSPGQTARITCSGDALPKRYAYWYQQKSGQAPILVIYEDKKRPSGIPERLSGSKSGTVATLTISGAQVEDEADYYCYSTDSSGNHAVFGGGTQLTVL
notes: IgG; source: Expi293F, transfected, purified (Protein A)
Regarding B2, the binding result in test [1] is given as “binds”.
